Results on eleven molecules are retold here after patent US20230226096A1 (Orna Therapeutics, Inc., priority 2020, published 2023).

The labels stand for the following.
B1: Human pegivirus isolate JD2B8C (nucleic acid, listed as Pegivirus sp.)
DNA: TGGTCACCTTGGTAGCCACTATAGGTGGGTCTTAAGAGAAGGTTAAGATTCCTCTTGTGCCTGCGGCGAGACCGCGCACGGTCCACAGGTGTTGGCCCTACCGGTGTGAATAAGGGCCCGACGTCAGGCTCGTCGTTAAACCGAGCCCATTTCCCGCCTGGGCAAACGACGCCCACGTACGGTCCACGTCGCCCTTTTAATGTCTCTCTTGACCAATAGGTTCATCCGGCGAGTTGACAAGGACCAGTGGGGGCCGGGGGTCACAGGGATGGACCCTGGGCCCTGCCCTTCCCGGCGGGGTGGGGAAAGCATGGGGCCACCCAGCTCCGCGGCGGCCTGCAGCCGGGGTAGCCCAAGAACCTTCGGGTGAGGGCGGGTGGCATTTTTCTTCCTATACCGATC
B2: Simian pegivirus (nucleic acid, listed as Pegivirus sp.)
DNA: GGGGAATCTCACCCCCCGTCCGGTTCCGGAAGAATCGGAAACCGACACCCTGACCAATCATTCTTGATCATAGAGTGGATGTTAGTGAAAGCCAGACGAAAGCCGGCGGATGGGTGGTGACAGGGTTGGTAGGTCGTAAATCCCGGCCACCCTGGTACCCGGTATAAGTTGGGCGGAAGCTGACTGAAGCTCCGTGCTCTTTTCTGTGCGTTCTTGGTGCACGGTCCACAGGTGACGCCTATACCGGTGTGAATAATAGGCCGACTCGAGCGGAGTCGTTAAACTGAGAACCTCCATACGGATGGCAACTTGGCTTGCGTACGGGGACGCCGCTAAAGTCACAGTGGGTTAAGTCCGGCGGGTTGACAACCCCAGCAAGGCGAGGGGGTCCTATTGTTGGACTCTGCCAGTTCCCGGTGGAGGTAGGCATGGGGTGGCCCAGCTCCGCGGCGCGCTACAGCCGGGGTAGCCCAAAATCCGAAAGGTGAGGGCGGGCCACATGTCCGAAATTTAGTCAAGC
B3: Pestivirus giraffe-1 (nucleic acid, listed as Pestivirus sp.)
DNA: GTATACGAGTTTAGCTCAATCCTCGTATACAATATTGGGCGTCACCAAATATAGATTTGGCATAGGCAACACCCCGATGCGAAGGCCGAAAAGGGCTAACCATGCCCTTAGTAGGACTAGCAAAAAATCGGGGACTAGCCCAGGTGGTGAGCTTCCTGGATGACCGAAGCCCTGAGTACAGGGCAGTCGTCAACAGTTCAACACGCAGAATAGGTTTGCGTCTTGATATGCTGTGTGGACGAGGGCATGCCCACGGTACATCTTAACCTATCCGGGGGTCGGATAGGCGAAAGTCCAGTATTGGACTGGGAGTACAGCCTGATAGGGTGTTGCAGAGACCCATCTGATAGGCTAGTATAAAAAACTCTGCTGTACATGGCAC
B4: Kobuvirus SZAL6: "Kobuvirus SZAL6 IRES", one of the selected IRES sequences, SEQ ID NOs: 348-389 (nucleic acid, listed as Kobuvirus sp.)
DNA: TTTCACACCCTCTTTTCCGGTGGTCCGGACCCAGACCACCGTTACTCCATTCAGCTACTTCGGTACCTGTTCGGAGGAATTAAACGGGCACCCTACCCAAGGGTTACATGGGACCATATTCCTCCTCCCCTGTAACTTTAAGTTTTGTGCCCGTATTCTTGACTCCAGGCGGATGTTGTGTCGCCCGTCCTGTGAACAAACAGCTAGACACTTTCCTCCCCTCCCTCTGGGCTGCTCCGGCAGTCCACTCCCTCCCCCCAGCGTAACATGCCCCGCTGGAGTGATGCACCTGGAAGTCGTGGACGTGGGTTAGTAACTTCGGTGAAAACCCACTATAATGACAACTGGTTGACCCCCACACTCAAAGGACTCGAGTCTTTCTCCCTTAAGGCTAGCCCGGCCACATGAATTTGCAGCTGGCAACTAGTGAGTCCACCATGTCCCGCAACCTCGGCTGCGGAGTGCTGTTCCCCAAGCGTATGCCTTCCTTCTGTAAGAGTGCGCCTGGCAAGCACATCTGAGAAGTCGTTCCGCTGCGTCGTGCCAACCTGGCGACAGGTGACCCAGTGTGCGTAGACTTCTTCCGGATTCGTCCGGCTCTTCTCTAGGAAACATGCGTGTAAGGTTCATGTGCCAAAGCCCTGCGCGCGGTGTTCTTCTACTGCCCTAGGAATGTGCCGCAGGTACCCCTACTTCGGTAGGGATCTGAGCGGTAGCTAATTGTCTACGGGTAGTTTCATTTCCATCTTCTCTTCAGGTCGACATC
B5: Porcine pestivirus isolate Bungowannah (nucleic acid, listed as Pestivirus sp.)
DNA: TACGCGGGGTATAACGACAGTAGTTCAAGTGTCGTTATGCATCATTGGCCATAACAAATTATCTAATTTGGAATAGGGACCTGCGACCTGTACGAAGGCCGAGCGTCGGTAGCCATTCCGACTAGTAGGACTAGTACAAATAGGTCAACTGGTTGAGCAGGTGAGTGTGCTGCAGCGGCTAAGCGGTGAGTACACCGTATTCGTCAACAGGTGCTACTGGAAAGGATCACCCACTAGCGATGCCTGTGTGGACGAGGACATGTCCAAGCCAATGTTATCAGTAGCGGGGGTCGTTACTGAGAAAGCTGCCCAGAATGGGTAGTTGCACATACAGTCTGATAGGATGCCGGCGGATGCCCTGTATTTTGACCAGTATAAATATTATCCGTTGTAAAGCAT
B6: Sakobuvirus A FFUP1 (1x mut) (nucleic acid)
DNA: TCACGCGCTTTTCCGGTGGTCACCCACCGTTAGGGAGCGCCAGCGTTCGCGCTTCCGCTACCAGGTGACACACTCCTTTCCCCTCCCCCATTCCCGTTCCCATCCTCTGGACTGGTTTCTCCTCACGATTGACCAGCAGCTGGGAGCTGTTACCAGACGTTGGACAGTAAGTCCCGGATGCACTATAGGGCTGGTGGCTAGTGCTTGGTAAGCACTCAACGCCATACCTAATGTGTACCTCGGCTTGCCCTCCTGGTCGTGGTGACCGGCTGTTTCTCTTCCCTTGGCTCCAGACGGGCTGGTGTCCTACCACCACCGTTGCATGCAGACCTCCCCCTGCGCACTCGAACGCCCTGTCCCAGCAGGGTTAGTATGTGCTGTGCAGATCTGCATGTGACACCCCATCCACTGGTAGAGCAGGAAGTTGCCCTAGCTAACGCGGCAAGTATTACTTTCCGCTACACGTCCTTGAGATTCCTCGGACCTCTGGAACTAGGGTGACTGTGGGCTTGGGAAAACCCACCTTGGTCCTGTACTGCCTGATAGGGTCGCGGCTGGCCGACCAGTGGATGTAGCCAGTTGTTTTGGGAT
B7: Porcine pestivirus 1 (nucleic acid, listed as Pestivirus sp.)
DNA: GCAGATATCGGTGGTGGACCTGGGGGTTGGGCTCACCGTGCCCCTTCATGGGGTAGACCTCACTGCTTGATAGAGTGCCGGCGGATGCCTCAGGTAAGAGTATAAAATCCGTTGTTCACTAAC
modifications: chemistry not fully specified; the letters are possibly those of the target site
B8: Porcine Kobuvirus GS2 (nucleic acid, listed as Kobuvirus sp.)
DNA: TTTGAAAAGGGGGTGGGGGGGCCTCGGCCCCCTCACCCTCTTTTCCGGTGGCCATTCGCCCGGGCCACCGTTACTCCACTCCACTCCTTCGGGACTGGTTTGGAGGAACACAACAGGGCTTCCCATCCCTGTTTACCCTTTATTCCATCATCCTTTCCCCAAGTTTACCCTATCCACACCCCACTGACTGACTCCTTTGGATTTTGACCTCAGAATGCCTATTTGACCTCCCACTCGCCTCTCCCTTTTCGGATTGCCGGTGGTGCCTGGCGGAAAAAGCACAAGTGTGTTGCAGGCTACCAAACTCCTACCCGACAAAGGTGCGTGTCCGCGTGCTGAGTAATGGGATAGGAGATGCCTACAACAGGCTCGCCCATGAGTAGAGCATGGACTGCGGTGCATGTGACTTCGGTCACCACGGGCATAGCATTGCTCACCCGTGAATCAAGTCATCGAGATTTCTCTGACCTCTGAAGTGCACTGTGGTTGCGTGGCTGGGAATCCACGCTTGACCATGTACTGCTTGATAGAGTCGCGGCTGGCCGACTCATGGGTTAAAGTCAGTTGACAAGACAC
B9: Pegivirus I (nucleic acid)
DNA: AGAATGGTCTAAGTGGTTGCCACCGTGGTCCGAAGGGGAGGAGGACCTACGCTGCCAGGGTTGGCAGGTCGTAAATCCCGGGTGTAGGAGATCCCTCCTTGTTAGGACTGCTGGTAGCTGGGGGGTCGGTGACCCCCTGGGCAACCGCCAAACCCGGACGACCGGGTGGCGGCTCCATGTTGGCACGGTCCACAGGTGTGAACCCTACCGGTGTGAATAAGGGTTGGTGGTTGCGGTCCACCTTAAACGTAGTATGCATTGGGCTTGGTAAAACACCGCTCGTAGTACGGAACGCCGCCTTTAAAGACACAGTAGGCGTAGCCGGCGGGTTGACAATCCATACGGGGGGTGGGGTGTGGTCATGGATCTGTCCACACCACCTTCATGCGGCCCTCTAAGCAAGCCATACCGGGGGGAGGCGCGCGGCACCGCACTGCCGGGCAAGGGGAAGAACCTTCGGGTGACCCCCCCCCAACCACCGTCCGATCAATGCTAATGTTGCGTTTAGGCGTGACACCGGCACA
modifications: Pegivirus I
B10: Human pegivirus isolate JD2B1I (nucleic acid, listed as Pegivirus sp.)
DNA: TCAGGGTTGGTAGGTCGTAAATCCCGGTCACCTTGGTAGCCACTATAGGTGGGTCTTAAGAGAAGGTTAAGATTCCTCTTGTGCCTGCGGCGAGACCGCGCACGGTCCACAGGTGTTGGCCCTACCGGTGGGAATAAGGGCCCGACGTCAGGCTCGTCGTTAAACCGAGCCCGTCACCCACCTGGGCAAACGACGCCCACGTACGGTCCACGTCGCCCTTCA
B11: Pronghorn antelope pestivirus (nucleic acid, listed as Pestivirus sp.)
DNA: GTATACGCAGTTAGTTCATCCTGTGTATACAGATTGGAGACTCTAAAAACAACGATTCGGAATAGGGGCCCGCGGCGAAGACCGAAGACAGGCTAACCATGCCGTTAGTAGGGCTAGCACCAAAACGCGGGAACTAGACACTTAGGAGAGTGGTCTGGCTACTCTAAGAGGTGAGTACACCTTAACCGTCAAGGGTTCTACTCCTCAGTTGAGGACTAGAGATGCCCTGTGGACGGGGGCATGCCCAAGAGTTAGCTTAGCCGGGGCGGGGGTTGTTCCGGTGAAAGTAGCAATATTGACCACACTGCCTGATAGGGCGGAGCAGGCCCCCTAGGTAGTCTAGTATAAAATGTCTGCTGTACATGGCAC

The test system of this data set is HEK293 cells. Type of data set: cell-based, human. The following applies: luminescence from secreted Gluc in supernatant 24 hours after transfection of HEK293 cells; circular RNA encoding Gluc with the named IRES (UTR truncated to 675 nt).
Molecule B1 showed an Expression of 5.36E+05. To B2 belongs 8.56E+04; to B3, 4.72E+05; to B4, 98850000. In the case of B5 it was 1.10E+07; in that of B6, 8.82E+06; in that of B7, 9.46E+04. In turn, B8 came in with an Expression of 44200000. In the case of B9 it was 8.02E+04; in that of B10, 6.85E+05.

B11: the Expression was 1.35E+06.
